# T1: 14-3-3 proteins, P29311
# T1 chain: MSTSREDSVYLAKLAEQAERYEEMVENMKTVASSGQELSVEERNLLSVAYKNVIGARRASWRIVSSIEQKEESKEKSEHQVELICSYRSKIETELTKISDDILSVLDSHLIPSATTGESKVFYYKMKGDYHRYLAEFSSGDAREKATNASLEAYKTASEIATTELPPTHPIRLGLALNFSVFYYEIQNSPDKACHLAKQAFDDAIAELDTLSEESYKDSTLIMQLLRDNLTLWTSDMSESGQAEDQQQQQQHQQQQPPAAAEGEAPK
# Target: T1, 14-3-3 proteins, P29311
# Test: co-immunoprecipitation (anti-FLAG IP, immunoblot quantification)
# Conditions: chain shown with the change; n = 3; reg1Δ Snf1-GFP Glc7-GFP cells; parent: est. 1.0; read off a plot
row,Binder,ratio to parent
1,"Reg1-FLAG (wild type), Q00816 N624S (protein) MSTNLANYFAGKKDIENEHVNRNASHESNSKSDVKISGNDNDNDEDMGPSVSMAVQAKNDDDFHKSTFNLKRTRSMGLLDEYIDPTKKLLGRSDDLYDNDNEYYDNSSNNSSSNSSDDDYDDGYQEHSTSVSPPPADNDSYLIPQDDNDVVVEPERHVDYLSHEWKESEISNSWKYIILKKKKRDVDLVNAARLENASWRTWAKARNNLKTVSPEVVNWSKDSDVTWLYGPIVRDSEGNAQSEEEHDLERGYGSDDENSKRISMPTKNSKSIAAAPKPILKKRTVTEIIEDNALWKLNEARKHMTEMKHASVIMDPNGNKNVHDDFDALAAQVNAQYYHYPKESNSSVSLKSQHSDKKDNSTIPNPVGENSNGGGDKGEEDLHLKSALHVQNNRSTAQSNKSILENSTNDRKANLDQNLNSPDNNRFPSSTSSSNRDNENNSMGLSSILTSNPSEKSNKPTKNRHIHFNDRVEQCMALRYPASQSEDDESDDENKQYVDVNNNANVTTINNNRTPLLAIQHKSIPINSATEHLNKNTSDDDTSSQSSSSSHSDDEEHGGLYINARFSRRSDSGVHSPITDNSSVASSTTSRAHVRPIIKLLPDTTLNYGSDEESDNGEFNGYGSAVSHNVNTSRGYDYIYDYNSVYTGDTSSFLPVDSCDIVDVPEGMDLQTAIADDNASNYEFNNAVESKEKHVPQLHKASANNTTRQHGSHMLLYDDDNYSSSSDSEQQFIEDSQYNSSDDEEEEDDDDQEVDDNHDEGLSLRRTLSLGKSGSTNSLYDLAQPSLSSATPQQKNPTNFTGGKTDVDKDAQLAVRPYPLKRNSSSGNFIFNSDSEEESSSEEEQRPLPANSQLVNRSVLKGSVTPANISSQKKKALPKQPKASDSSQSFRIVNNTPSPAEVGASDVAIEGYFSPRNESIKSVVSGGNMMDHQDHSEMDTLAKGFENCHINNASKLKDKKVDSVQTTRKEASLTDSSNESLHKVVQNARGMASKYLHSWKKSDVKPQENGNDSS",1.4
2,"Reg1-FLAG (wild type), Q00816 A54T (protein) MSTNLANYFAGKKDIENEHVNRNASHESNSKSDVKISGNDNDNDEDMGPSVSMTVQAKNDDDFHKSTFNLKRTRSMGLLDEYIDPTKKLLGRSDDLYDNDNEYYDNSSNNSSSNSSDDDYDDGYQEHSTSVSPPPADNDSYLIPQDDNDVVVEPERHVDYLSHEWKESEISNSWKYIILKKKKRDVDLVNAARLENASWRTWAKARNNLKTVSPEVVNWSKDSDVTWLYGPIVRDSEGNAQSEEEHDLERGYGSDDENSKRISMPTKNSKSIAAAPKPILKKRTVTEIIEDNALWKLNEARKHMTEMKHASVIMDPNGNKNVHDDFDALAAQVNAQYYHYPKESNSSVSLKSQHSDKKDNSTIPNPVGENSNGGGDKGEEDLHLKSALHVQNNRSTAQSNKSILENSTNDRKANLDQNLNSPDNNRFPSSTSSSNRDNENNSMGLSSILTSNPSEKSNKPTKNRHIHFNDRVEQCMALRYPASQSEDDESDDENKQYVDVNNNANVTTINNNRTPLLAIQHKSIPINSATEHLNKNTSDDDTSSQSSSSSHSDDEEHGGLYINARFSRRSDSGVHSPITDNSSVASSTTSRAHVRPIIKLLPDTTLNYGSDEESDNGEFNGYGNAVSHNVNTSRGYDYIYDYNSVYTGDTSSFLPVDSCDIVDVPEGMDLQTAIADDNASNYEFNNAVESKEKHVPQLHKASANNTTRQHGSHMLLYDDDNYSSSSDSEQQFIEDSQYNSSDDEEEEDDDDQEVDDNHDEGLSLRRTLSLGKSGSTNSLYDLAQPSLSSATPQQKNPTNFTGGKTDVDKDAQLAVRPYPLKRNSSSGNFIFNSDSEEESSSEEEQRPLPANSQLVNRSVLKGSVTPANISSQKKKALPKQPKASDSSQSFRIVNNTPSPAEVGASDVAIEGYFSPRNESIKSVVSGGNMMDHQDHSEMDTLAKGFENCHINNASKLKDKKVDSVQTTRKEASLTDSSNESLHKVVQNARGMASKYLHSWKKSDVKPQENGNDSS",1.2

# The next lines start with the values.
row,ratio to parent,Binder
1,1.2,"Reg1-FLAG (wild type), Q00816 P278Q (protein) MSTNLANYFAGKKDIENEHVNRNASHESNSKSDVKISGNDNDNDEDMGPSVSMAVQAKNDDDFHKSTFNLKRTRSMGLLDEYIDPTKKLLGRSDDLYDNDNEYYDNSSNNSSSNSSDDDYDDGYQEHSTSVSPPPADNDSYLIPQDDNDVVVEPERHVDYLSHEWKESEISNSWKYIILKKKKRDVDLVNAARLENASWRTWAKARNNLKTVSPEVVNWSKDSDVTWLYGPIVRDSEGNAQSEEEHDLERGYGSDDENSKRISMPTKNSKSIAAAPKQILKKRTVTEIIEDNALWKLNEARKHMTEMKHASVIMDPNGNKNVHDDFDALAAQVNAQYYHYPKESNSSVSLKSQHSDKKDNSTIPNPVGENSNGGGDKGEEDLHLKSALHVQNNRSTAQSNKSILENSTNDRKANLDQNLNSPDNNRFPSSTSSSNRDNENNSMGLSSILTSNPSEKSNKPTKNRHIHFNDRVEQCMALRYPASQSEDDESDDENKQYVDVNNNANVTTINNNRTPLLAIQHKSIPINSATEHLNKNTSDDDTSSQSSSSSHSDDEEHGGLYINARFSRRSDSGVHSPITDNSSVASSTTSRAHVRPIIKLLPDTTLNYGSDEESDNGEFNGYGNAVSHNVNTSRGYDYIYDYNSVYTGDTSSFLPVDSCDIVDVPEGMDLQTAIADDNASNYEFNNAVESKEKHVPQLHKASANNTTRQHGSHMLLYDDDNYSSSSDSEQQFIEDSQYNSSDDEEEEDDDDQEVDDNHDEGLSLRRTLSLGKSGSTNSLYDLAQPSLSSATPQQKNPTNFTGGKTDVDKDAQLAVRPYPLKRNSSSGNFIFNSDSEEESSSEEEQRPLPANSQLVNRSVLKGSVTPANISSQKKKALPKQPKASDSSQSFRIVNNTPSPAEVGASDVAIEGYFSPRNESIKSVVSGGNMMDHQDHSEMDTLAKGFENCHINNASKLKDKKVDSVQTTRKEASLTDSSNESLHKVVQNARGMASKYLHSWKKSDVKPQENGNDSS"
2,1.2,"Reg1-FLAG (wild type), Q00816 P231S (protein) MSTNLANYFAGKKDIENEHVNRNASHESNSKSDVKISGNDNDNDEDMGPSVSMAVQAKNDDDFHKSTFNLKRTRSMGLLDEYIDPTKKLLGRSDDLYDNDNEYYDNSSNNSSSNSSDDDYDDGYQEHSTSVSPPPADNDSYLIPQDDNDVVVEPERHVDYLSHEWKESEISNSWKYIILKKKKRDVDLVNAARLENASWRTWAKARNNLKTVSPEVVNWSKDSDVTWLYGSIVRDSEGNAQSEEEHDLERGYGSDDENSKRISMPTKNSKSIAAAPKPILKKRTVTEIIEDNALWKLNEARKHMTEMKHASVIMDPNGNKNVHDDFDALAAQVNAQYYHYPKESNSSVSLKSQHSDKKDNSTIPNPVGENSNGGGDKGEEDLHLKSALHVQNNRSTAQSNKSILENSTNDRKANLDQNLNSPDNNRFPSSTSSSNRDNENNSMGLSSILTSNPSEKSNKPTKNRHIHFNDRVEQCMALRYPASQSEDDESDDENKQYVDVNNNANVTTINNNRTPLLAIQHKSIPINSATEHLNKNTSDDDTSSQSSSSSHSDDEEHGGLYINARFSRRSDSGVHSPITDNSSVASSTTSRAHVRPIIKLLPDTTLNYGSDEESDNGEFNGYGNAVSHNVNTSRGYDYIYDYNSVYTGDTSSFLPVDSCDIVDVPEGMDLQTAIADDNASNYEFNNAVESKEKHVPQLHKASANNTTRQHGSHMLLYDDDNYSSSSDSEQQFIEDSQYNSSDDEEEEDDDDQEVDDNHDEGLSLRRTLSLGKSGSTNSLYDLAQPSLSSATPQQKNPTNFTGGKTDVDKDAQLAVRPYPLKRNSSSGNFIFNSDSEEESSSEEEQRPLPANSQLVNRSVLKGSVTPANISSQKKKALPKQPKASDSSQSFRIVNNTPSPAEVGASDVAIEGYFSPRNESIKSVVSGGNMMDHQDHSEMDTLAKGFENCHINNASKLKDKKVDSVQTTRKEASLTDSSNESLHKVVQNARGMASKYLHSWKKSDVKPQENGNDSS"
3,1.1,"Reg1-FLAG (wild type), Q00816 W165G (protein) MSTNLANYFAGKKDIENEHVNRNASHESNSKSDVKISGNDNDNDEDMGPSVSMAVQAKNDDDFHKSTFNLKRTRSMGLLDEYIDPTKKLLGRSDDLYDNDNEYYDNSSNNSSSNSSDDDYDDGYQEHSTSVSPPPADNDSYLIPQDDNDVVVEPERHVDYLSHEGKESEISNSWKYIILKKKKRDVDLVNAARLENASWRTWAKARNNLKTVSPEVVNWSKDSDVTWLYGPIVRDSEGNAQSEEEHDLERGYGSDDENSKRISMPTKNSKSIAAAPKPILKKRTVTEIIEDNALWKLNEARKHMTEMKHASVIMDPNGNKNVHDDFDALAAQVNAQYYHYPKESNSSVSLKSQHSDKKDNSTIPNPVGENSNGGGDKGEEDLHLKSALHVQNNRSTAQSNKSILENSTNDRKANLDQNLNSPDNNRFPSSTSSSNRDNENNSMGLSSILTSNPSEKSNKPTKNRHIHFNDRVEQCMALRYPASQSEDDESDDENKQYVDVNNNANVTTINNNRTPLLAIQHKSIPINSATEHLNKNTSDDDTSSQSSSSSHSDDEEHGGLYINARFSRRSDSGVHSPITDNSSVASSTTSRAHVRPIIKLLPDTTLNYGSDEESDNGEFNGYGNAVSHNVNTSRGYDYIYDYNSVYTGDTSSFLPVDSCDIVDVPEGMDLQTAIADDNASNYEFNNAVESKEKHVPQLHKASANNTTRQHGSHMLLYDDDNYSSSSDSEQQFIEDSQYNSSDDEEEEDDDDQEVDDNHDEGLSLRRTLSLGKSGSTNSLYDLAQPSLSSATPQQKNPTNFTGGKTDVDKDAQLAVRPYPLKRNSSSGNFIFNSDSEEESSSEEEQRPLPANSQLVNRSVLKGSVTPANISSQKKKALPKQPKASDSSQSFRIVNNTPSPAEVGASDVAIEGYFSPRNESIKSVVSGGNMMDHQDHSEMDTLAKGFENCHINNASKLKDKKVDSVQTTRKEASLTDSSNESLHKVVQNARGMASKYLHSWKKSDVKPQENGNDSS"
